{"source": "paper PMC8606531", "about": "“The Impact of Rare Human Variants on Barrier-To-Auto-Integration Factor 1 (Banf1) Structure and Function”", "molecular_target": "T1, Banf1 WT (Homo sapiens, UniProt O75531 1-89)", "T1 sequence": "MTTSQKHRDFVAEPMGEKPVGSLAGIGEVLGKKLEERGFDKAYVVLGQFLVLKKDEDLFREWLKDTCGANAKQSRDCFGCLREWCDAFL", "assay": "EMSA; EC50; 10 mM KH2PO4, 100 mM NaCl, 0.01% IGEPAL, 5 nM Cy5 DNA, 30 min at 37 C; pH not stated; 8% gel in 1x TBE at 4 C", "conditions": "protein: recombinant; tags: N-terminal His6 (pET-28a NdeI-XhoI); chain copies: 2; label: 5' Cy5 on forward strand; blunt"}
{"binder": "Cy5 40 bp dsDNA (dsDNA) DNA 1: AGGAGCGCCAGACCCACCAAGAGCCCTCTATCGGTTGGGA DNA 2: TCCCAACCGATAGAGGGCTCTTGGTGGGTCTGGCGCTCCT", "values": [{"measurement": "apparent K (half saturation)", "result": "15.1 ± 1.96", "unit": "nM"}]}
